The text below walks through data of patent US20080103095A1.

The assay deals with firefly luciferase (firefly) [luciferase: P08659]. The experiment in a line: cell-based or functional assay.
Chain of firefly luciferase (firefly) [luciferase: P08659] (P08659 whole entry): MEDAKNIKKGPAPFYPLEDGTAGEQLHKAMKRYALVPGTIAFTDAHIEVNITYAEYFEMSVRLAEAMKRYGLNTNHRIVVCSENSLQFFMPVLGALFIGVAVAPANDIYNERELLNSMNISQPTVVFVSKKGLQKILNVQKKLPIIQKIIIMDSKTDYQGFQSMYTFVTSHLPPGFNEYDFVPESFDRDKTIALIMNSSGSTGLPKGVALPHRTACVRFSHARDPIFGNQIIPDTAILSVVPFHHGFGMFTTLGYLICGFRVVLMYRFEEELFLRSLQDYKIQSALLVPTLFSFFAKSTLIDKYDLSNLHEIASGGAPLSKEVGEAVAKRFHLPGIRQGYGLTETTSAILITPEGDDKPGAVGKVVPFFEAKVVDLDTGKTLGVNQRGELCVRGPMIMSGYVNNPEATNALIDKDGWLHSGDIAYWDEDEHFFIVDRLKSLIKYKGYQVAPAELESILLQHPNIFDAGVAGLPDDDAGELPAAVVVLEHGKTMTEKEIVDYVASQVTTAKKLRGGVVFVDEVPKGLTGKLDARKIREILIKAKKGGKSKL

Take “grp170 as used in Examples 6 and 8 (source and species not stated)”: the percent protein aggregation (light scattering, OD 320 nm, 43° C 30 min; luciferase heated alone = 100%) amounted to 40%.
The result for “hsp110 as used in Examples 6, 8 and 10 (source and species not stated)” reads 20%.
